Data from patent US20070071724.

Biological target: Nedd8-AMC (Boston Biochem), Q15843
Sequence (Q15843 whole entry, looked up): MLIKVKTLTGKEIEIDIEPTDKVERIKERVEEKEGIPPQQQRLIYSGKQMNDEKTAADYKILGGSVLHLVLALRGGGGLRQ

B1: Uch-L3 (Boston Biochem) (protein)
chain: MEGQRWLPLEANPEVTNQFLKQLGLHPNWQFVDVYGMDPELLSMVPRPVCAVLLLFPITEKYEVFRTEEEEKIKSQGQDVTSSVYFMKQTISNACGTIGLIHAIANNKDKMHFESGSTLKKFLEESVSMSPEERARYLENYDAIRVTHETSAHEGQTEAPSIDEKVDLHFIALVHVDGHLYELDGRKPFPINHGETSDETLLEDAIEVCKKFMERDPDELRFNAIALSAA
- hydrolysis of Nedd8-AMC: there was no reduction in hydrolysis of Nedd8-AMC, a ubiquitin-like protein that binds to and is cleaved by Uch-L3, when 20 nM Uch-L3 was incubated with 5 µM LDN
